The source of these data is PMC5656002 (ACS infectious diseases, 2016).

Test [1] concerns the target SME-1 beta-lactamase (Serratia marcescens) (UniProt P52682). Particulars: cited from earlier work.
Test [2] deals with KPC-2 beta-lactamase (Klebsiella pneumoniae) (UniProt Q9F663). Particulars: cited from earlier work.
The target in test [3] is CTX-M-14 beta-lactamase (Escherichia coli). Particulars: cited from earlier work.
In test [4] the target is T1, KPC-2 β-lactamase (purified) (UniProt Q9F663 30-293). As to the kind of experiment: cell-based or functional assay.
Test [5] addresses T1, KPC-2 β-lactamase (purified). As to the kind of experiment: enzyme inhibition assay.
Test [6] shares this target. As to the kind of experiment: enzyme inhibition assay. The source holds these as a separate data set.
For test [7], the target named is T2, TEM-1 β-lactamase (purified) (UniProt P62593 24-286). As to the kind of experiment: enzyme inhibition assay.
The target in test [8] is T2, TEM-1 β-lactamase (purified). Briefly: enzyme inhibition assay. The source holds these as a separate data set.
Test [9] addresses T1, KPC-2 β-lactamase (purified). As to the kind of experiment: cell-based or functional assay. The source holds these as a separate data set.
For test [10] the target is unchanged. As to the kind of experiment: enzyme inhibition assay. This is another data set of the same source.
For test [11] the target is unchanged. As to the kind of experiment: activity-based association and dissociation kinetics.
The next test deals with T3, SHV-1 β-lactamase (UniProt P0AD64 22-286).
T3 sequence (looked up): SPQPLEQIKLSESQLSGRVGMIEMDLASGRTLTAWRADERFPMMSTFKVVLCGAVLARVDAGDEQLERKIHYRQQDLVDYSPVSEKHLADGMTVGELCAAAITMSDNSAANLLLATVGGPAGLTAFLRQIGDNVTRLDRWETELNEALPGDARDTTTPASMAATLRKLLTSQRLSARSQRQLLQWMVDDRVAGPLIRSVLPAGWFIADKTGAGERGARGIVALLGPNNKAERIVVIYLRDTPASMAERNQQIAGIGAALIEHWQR
Briefly: enzyme inhibition assay.

The target of test [12] is T2, TEM-1 β-lactamase (purified). As to the kind of experiment: enzyme inhibition assay. This is another data set of the same source.
Another test concerns the target CTX-M-14 β-lactamase (UniProt Q9L5C7 1-291). As to the kind of experiment: enzyme inhibition assay.
The next test addresses T4, SME-1 β-lactamase (UniProt P52682 28-294).
T4 sequence: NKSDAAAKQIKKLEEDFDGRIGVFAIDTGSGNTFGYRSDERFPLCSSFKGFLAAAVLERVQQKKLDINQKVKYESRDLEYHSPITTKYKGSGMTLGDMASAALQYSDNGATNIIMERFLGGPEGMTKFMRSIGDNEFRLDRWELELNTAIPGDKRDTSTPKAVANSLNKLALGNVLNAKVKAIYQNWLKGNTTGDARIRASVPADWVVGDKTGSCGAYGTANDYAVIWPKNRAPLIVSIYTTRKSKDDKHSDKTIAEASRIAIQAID
As to the kind of experiment: enzyme inhibition assay.

Like-named read-outs stand apart in the source and are kept apart here. A value given as a limit tells only on which side of the number the result lay.

Turning to BLIP (from UniProt P35804), the inhibition constant Ki (in general, the equilibrium dissociation constant of an inhibitor or competing ligand from its target) in test [1] was 2.4 nM; in test [2] it was 0.082 nM; in test [3] it was 800 nM.

B1: β-lactamase inhibitory protein (BLIP), wild type (natural protein, Streptomyces clavuligerus, UniProt P35804 37-201, looked up)
chain: AGVMTGAKFTQIQFGMTRQQVLDIAGAENCETGGSFGDSIHCRGHAAGDYYAYATFGFTSAAADAKVDSKSQEKLLAPSAPTLTLAKFNQVTVGMTRAQVLATVGQGSCTTWSEYYPAYPSTAGVTLSLSCFDVDGYSSTGFYRGSAHLWFTDGVLQGKRQWDLV
For the molecule B1, in test [4], the “ampicillin MIC of E. coli TP142 (chromosomal blaKPC-2) carrying the BLIP plasmid” value (from here on “ampicillin MIC of E. coli TP142”) worked out at 1 µg/mL. The values for the Ki in test [5] and in test [6] were 1.2 ± 0.4 nM and 0.2 ± 0.2 nM, respectively.

B2: BLIP W112D (natural protein)
chain: AGVMTGAKFTQIQFGMTRQQVLDIAGAENCETGGSFGDSIHCRGHAAGDYYAYATFGFTSAAADAKVDSKSQEKLLAPSAPTLTLAKFNQVTVGMTRAQVLATVGQGSCTTDSEYYPAYPSTAGVTLSLSCFDVDGYSSTGFYRGSAHLWFTDGVLQGKRQWDLV
Take B2: in [4], the “ampicillin MIC of E. coli TP142” value amounted to 1 µg/mL. Further, the inhibition constant Ki was 1080 ± 551 nM in test [5], 1190 ± 701 nM in [7], 587 ± 63 nM in test [6] and 1270 ± 212 nM in test [8].

B3: BLIP E73K:R160G (natural protein)
chain: AGVMTGAKFTQIQFGMTRQQVLDIAGAENCETGGSFGDSIHCRGHAAGDYYAYATFGFTSAAADAKVDSKSQKKLLAPSAPTLTLAKFNQVTVGMTRAQVLATVGQGSCTTWSEYYPAYPSTAGVTLSLSCFDVDGYSSTGFYRGSAHLWFTDGVLQGKGQWDLV
B3: the “ampicillin MIC of E. coli TP142” value in test [9] is at most 3 µg/mL. The molecule further gave a Ki in [10] of 128 ± 30 nM. Also, in [11], the Kd (commonly the constant that tells how readily two partners part at equilibrium) stood at 60 nM; the koff – broadly, the rate constant with which the complex falls apart – was 0.03 s⁻¹; the kon (usually the rate constant with which the complex forms) turned out to be 500000 M⁻¹ s⁻¹.

B4: BLIP E73K:K74T (natural protein)
chain: AGVMTGAKFTQIQFGMTRQQVLDIAGAENCETGGSFGDSIHCRGHAAGDYYAYATFGFTSAAADAKVDSKSQKTLLAPSAPTLTLAKFNQVTVGMTRAQVLATVGQGSCTTWSEYYPAYPSTAGVTLSLSCFDVDGYSSTGFYRGSAHLWFTDGVLQGKRQWDLV
On to B4, for which the “ampicillin MIC of E. coli TP142” value in test [9] was at most 3 µg/mL. This molecule also yielded a Ki in test [10] of 1.6 ± 0.8 nM. In test [11], this molecule had an equilibrium dissociation constant (Kd) of 1.3 nM, an off-rate constant (koff) of 0.0004 s⁻¹ and an on-rate constant (kon) of 300000 M⁻¹ s⁻¹.

B5: BLIP K74T (natural protein)
chain: AGVMTGAKFTQIQFGMTRQQVLDIAGAENCETGGSFGDSIHCRGHAAGDYYAYATFGFTSAAADAKVDSKSQETLLAPSAPTLTLAKFNQVTVGMTRAQVLATVGQGSCTTWSEYYPAYPSTAGVTLSLSCFDVDGYSSTGFYRGSAHLWFTDGVLQGKRQWDLV
B5: the “ampicillin MIC of E. coli TP142” value in test [4] was 1.5 µg/mL. Besides, the inhibition constant (Ki) in test [5] stood at 1.8 ± 2.8 nM; in [7], 110 ± 23 nM; in test [6], 1.5 ± 1 nM; in test [8] it was 151 ± 97 nM.

B6: BLIP R160G (natural protein)
chain: AGVMTGAKFTQIQFGMTRQQVLDIAGAENCETGGSFGDSIHCRGHAAGDYYAYATFGFTSAAADAKVDSKSQEKLLAPSAPTLTLAKFNQVTVGMTRAQVLATVGQGSCTTWSEYYPAYPSTAGVTLSLSCFDVDGYSSTGFYRGSAHLWFTDGVLQGKGQWDLV
Regarding B6, in test [4], the “ampicillin MIC of E. coli TP142” value turned out to be 0.75 µg/mL. The inhibition constant (Ki) in test [5] was found to be 0.9 ± 0.4 nM; in test [7], 236 ± 115 nM; in test [6] it was 0.4 ± 0.3 nM; in test [8] it was 236 ± 85 nM.

B7: BLIP K74T:R160G (natural protein)
chain: AGVMTGAKFTQIQFGMTRQQVLDIAGAENCETGGSFGDSIHCRGHAAGDYYAYATFGFTSAAADAKVDSKSQETLLAPSAPTLTLAKFNQVTVGMTRAQVLATVGQGSCTTWSEYYPAYPSTAGVTLSLSCFDVDGYSSTGFYRGSAHLWFTDGVLQGKGQWDLV
For the molecule B7, the “ampicillin MIC of E. coli TP142” value in test [9] was at most 3 µg/mL. Besides, in [10], the affinity corresponds to a Ki of 150 ± 57 nM.

B8: BLIP K74T:W112D (natural protein)
chain: AGVMTGAKFTQIQFGMTRQQVLDIAGAENCETGGSFGDSIHCRGHAAGDYYAYATFGFTSAAADAKVDSKSQETLLAPSAPTLTLAKFNQVTVGMTRAQVLATVGQGSCTTDSEYYPAYPSTAGVTLSLSCFDVDGYSSTGFYRGSAHLWFTDGVLQGKRQWDLV
With B8, the “ampicillin MIC of E. coli TP142” value in test [9] is at most 3 µg/mL. In addition, the Ki in the test with SHV-1 β-lactamase was above 10000 nM; in test [10] it was 0.4 ± 0.2 nM; in test [12], above 10000 nM; with CTX-M-14 β-lactamase it was above 10000 nM; in the test with SME-1 β-lactamase, 450 nM. The molecule also gave a Kd in test [11] of 0.13 nM. For the same molecule, the koff in test [11] is 3e-05 s⁻¹. Further, the kon in test [11] was 200000 M⁻¹ s⁻¹.

B9: BLIP E73K (natural protein)
chain: AGVMTGAKFTQIQFGMTRQQVLDIAGAENCETGGSFGDSIHCRGHAAGDYYAYATFGFTSAAADAKVDSKSQKKLLAPSAPTLTLAKFNQVTVGMTRAQVLATVGQGSCTTWSEYYPAYPSTAGVTLSLSCFDVDGYSSTGFYRGSAHLWFTDGVLQGKRQWDLV
In the case of B9, the “ampicillin MIC of E. coli TP142” value in test [4] amounted to 1.5 µg/mL. The inhibitory constant (Ki) in test [5] is 13.7 ± 6.6 nM; in test [7], 835 ± 172 nM; in [6], 8.9 ± 6.3 nM; in test [8], 2530 ± 578 nM.
